# According to article doi:10.1101/2025.11.17.688879 (bioRxiv, 2025):
# Target: the molecule itself
# Test: native gel or EMSA
row,Protein,stoichiometry N
1,"HA-NvSTING stably expressed in MEF Sting-/- cells (MEF^NvSTING) (natural protein, Nematostella vectensis) MRRAEENNGFGTIPKRRNQHTPFYASIGMIVVIIVAFTSYHITSYGDDRNRAMRQYSFTFSLAYLAFLVGELLRRCCLFAEEYRHIETRYNGSLKKAIQTTFSFGHNNVLFVASLLFFVVFVASNDPNGSSSVIQGNSTAEPHTEMRQTSGWQGLWGQFIISALLTPLVVHLLGLRELSKVEESQLNEKENKNVADGLAWSYYFGYLKFVLPELEKQIEKTSKFRSKEKFVKKMFILIPSNCFWDDKIPGSDYDPQNRITFEGNTEPLEKTRGGVFLRHYKHSVYEIKDGENEPWFCIMEYATPLLTLYDMSVAQPGELSREERDAQVVVFLRKLQDILEGDRACQGKYELVTFSPDRDLADVMLRKLKDSELEIGG",≥ 4
2,"HA-MmSTING stably expressed in MEF Sting-/- cells (MEF^MmSTING) (natural protein, Mus musculus) MPYSNLHPAIPRPRGHRSKYVALIFLVASLMILWVAKDPPNHTLKYLALHLASHELGLLLKNLCCLAEELCHVQSRYQGSYWKAVRACLGCPIHCMAMILLSSYFYFLQNTADIYLSWMFGLLVLYKSLSMLLGLQSLTPAEVSAVCEEKKLNVAHGLAWSYYIGYLRLILPGLQARIRMFNQLHNNMLSGAGSRRLYILFPLDCGVPDNLSVVDPNIRFRDMLPQQNIDRAGIKNRVYSNSVYEILENGQPAGVCILEYATPLQTLFAMSQDAKAGFSREDRLEQAKLFCRTLEEILEDVPESRNNCRLIVYQEPTDGNSFSLSQEVLRHIRQEEKEEVTMNAPMTSVAPPPSVLSQEPRLLISGMDQPLPLRTDLI",≥ 4
3,"HA-DrSTING stably expressed in MEF Sting-/- cells (MEF^DrSTING) (natural protein, Danio rerio) MSVMGEDALVPRARSRLPVMCAAGLGFLTLAVAWLLDSDKFSERAGIIAFGLMLERFIYCICLLAEELLFHSRQRYHGRMSEIFRACFRGSGILGMCAIFLMLMLGGVSFSVKQWSHFNLMCAGYMLLNSLGVLGPAPVEISEICEAKKMNVAHGLAWSFYIGYLKFLLPALEVNVREYSRRERLSSPRLHILLPLNARVPSKPEEEDTNVVFHENLPDLKLDRAGVRKRSYTNSVYKITHNNETFSCILEYATPLLTLYQMSQESSAGFGERERKQQVLLFYRTLSQILDNSLECRNRYRLILLNDEHTGDPHYLSRELFQNLKQQDGEIFMDPTNEVHPVPEEGPVGNCNGALQATFHEEPMSDEPTLMFSRPQSLRSEPVETTDYFNPSSAMKQN",≥ 4
4,"HA-MbSTING stably expressed in MEF Sting-/- cells (MEF^MbSTING) (natural protein, Monosiga brevicollis) MMVNLSDLSHLSQRGWAQVFVTLAAAAISIFYFSFSPFEVAAGICASIAAAGAVPLLFDAVHYLIAFCISAPDARPPLRTVWTKTRLQRWSGLSILTFIVLACGLYFASPSPMSASNLFAVFALSLCNSVFSAMVAPRCGRLEVVDLATHPNTVLFRDFGAASAMSYWHGYLQHIAGDRAALEERFRDSDVGGMRVPRKLYILVPQDCEVNASDNKYEGLKATEHYISPKPITIGGVVDREMGKHTLYTPSESAETASVAFAMELASPLNTMKNALKDAAEGLLELQSEAFYLTLRGILKQEGVLDQGNDEGMIKLVWGKNRSEVLKKMRAEDQYAMP",4
